These results are taken from article doi:10.1101/2021.12.14.472590 (bioRxiv, 2021).

The test concerns the target human β-actin (recombinant G-actin) (human, UniProt P60709 1-375). The test can be described thus: NMR titration.

B1: ADAP1-381 (N-terminal intrinsically disordered fragment of ADAP) (domain or fragment)
chain: MAKYNTGGNPTEDVSVNSRPFRVTGPNSSSGIQARKNLFNNQGNASPPAGPSNVPKFGSPKPPVAVKPSSEEKPDKEPKPPFLKPTGAGQRFGTPASLTTRDPEAKVGFLKPVGPKPINLPKEDSKPTFPWPPGNKPSLHSVNQDHDLKPLGPKSGPTPPTSENEQKQAFPKLTGVKGKFMSASQDLEPKPLFPKPAFGQKPPLSTENSHEDESPMKNVSSSKGSPAPLGVRSKSGPLKPAREDSENKDHAGEISSLPFPGVVLKPAASRGGPGLSKNGEEKKEDRKIDAAKNTFQSKINQEELASGTPPARFPKAPSKLTVGGPWGQSQEKEKGDKNSATPKQKPLPPLFTLGPPPPKPNRPPNVDLTKFHKTSSGNSTS
For the molecule B1, the binding result was “binds”.
